For orientation: EC50 (read off the curve) means the concentration at which the effect is half-maximal.

Experiment [1] has as its target human factor D (purified from human serum, or as present in human serum/plasma) (human) (UniProt P00746). The experiment is described as follows: ELISA: wells coated with purified human factor D, serially diluted MAb, HRP goat anti-mouse IgG (Fc), OD450. For orientation: An ELISA detects its analyte on a solid surface through an enzyme-linked reagent.
In experiment [2] the target is factor D/VDA (human factor D mutant V113E, D116E, A118P) (human) (UniProt P00746). Put plainly: ELISA: wells coated with recombinant factor D protein at 0.5 µg/ml, serially diluted MAb 166-32, HRP goat anti-mouse IgG (Fc), OD450.
In experiment [3] the target is factor D/Pighu (pig-human factor D hybrid) (pig; human) (UniProt P00746). Described as above.
Experiment [4] has as its target baboon factor D (in baboon serum) (baboon). The experiment is described as follows: cell-based or functional assay.
For experiment [5], the target named is dog factor D (in dog serum) (dog). Put plainly: cell-based or functional assay. The following applies: scale: times less effective than for human factor D.
The target in experiment [6] is human factor D (purified from human serum, or as present in human serum/plasma) (human) (UniProt P00746). Put plainly: cell-based or functional assay.

Regarding MAb 166-32 (antibody), the EC50 (read off the curve) in experiment [1] amounted to 0.008 mg/L. The EC50 (read off the curve) in experiment [2] worked out at 0.02 mg/L. The EC50 (read off the curve) in experiment [3] was found to be 0.02 mg/L. Besides, in experiment [4], the inhibition of alternative complement hemolytic activity (rabbit red blood cells) of plasma samples from baboons given 5 mg/kg Mab 166-32, 18 hours after CPB was determined as 79.3%. This substance returned a neutralization of dog factor D in hemolytic assays, compared to human factor D in experiment [5] above 10. For the same substance, in experiment [6], the alternative pathway hemolytic activity of plasma from extracorporeal circuits of human whole blood (molar ratio MAb : factor D) worked out at 1.5, the inhibition of factor D dependent alternative pathway hemolysis of unsensitized rabbit RBCs (factor D depleted human serum supplemented with purified factor D) is 0.3 µg/mL and the molar ratio (MAb 166-32 to factor D) for inhibition of factor D dependent hemolysis (molar ratio MAb 166-32 : factor D) came out at 0.5.

For the origin of these results see patent US20110195069A1.
